Like-named read-outs stand apart in the source and are kept apart here. Bridges are numbered along the chain shown (N, C = ends). Where no end group is shown, it is not given here. [ ]: non-standard residue; d: D form. maleimide‑NOTA = 1,4,7-triazacyclononane-1,4-bis-acetic acid-7-maleimidoethylacetamide; Lys(N3) = [N-]=[N+]=NCCCC[C@H](N)C(=O)O; Pra = C#CC[C@H](N)C(=O)O
T1: recombinant human αvβ6 extracellular domain (R&D Systems) (human, UniProt P06756 31-992; P18564 22-709)
T1 chain 1: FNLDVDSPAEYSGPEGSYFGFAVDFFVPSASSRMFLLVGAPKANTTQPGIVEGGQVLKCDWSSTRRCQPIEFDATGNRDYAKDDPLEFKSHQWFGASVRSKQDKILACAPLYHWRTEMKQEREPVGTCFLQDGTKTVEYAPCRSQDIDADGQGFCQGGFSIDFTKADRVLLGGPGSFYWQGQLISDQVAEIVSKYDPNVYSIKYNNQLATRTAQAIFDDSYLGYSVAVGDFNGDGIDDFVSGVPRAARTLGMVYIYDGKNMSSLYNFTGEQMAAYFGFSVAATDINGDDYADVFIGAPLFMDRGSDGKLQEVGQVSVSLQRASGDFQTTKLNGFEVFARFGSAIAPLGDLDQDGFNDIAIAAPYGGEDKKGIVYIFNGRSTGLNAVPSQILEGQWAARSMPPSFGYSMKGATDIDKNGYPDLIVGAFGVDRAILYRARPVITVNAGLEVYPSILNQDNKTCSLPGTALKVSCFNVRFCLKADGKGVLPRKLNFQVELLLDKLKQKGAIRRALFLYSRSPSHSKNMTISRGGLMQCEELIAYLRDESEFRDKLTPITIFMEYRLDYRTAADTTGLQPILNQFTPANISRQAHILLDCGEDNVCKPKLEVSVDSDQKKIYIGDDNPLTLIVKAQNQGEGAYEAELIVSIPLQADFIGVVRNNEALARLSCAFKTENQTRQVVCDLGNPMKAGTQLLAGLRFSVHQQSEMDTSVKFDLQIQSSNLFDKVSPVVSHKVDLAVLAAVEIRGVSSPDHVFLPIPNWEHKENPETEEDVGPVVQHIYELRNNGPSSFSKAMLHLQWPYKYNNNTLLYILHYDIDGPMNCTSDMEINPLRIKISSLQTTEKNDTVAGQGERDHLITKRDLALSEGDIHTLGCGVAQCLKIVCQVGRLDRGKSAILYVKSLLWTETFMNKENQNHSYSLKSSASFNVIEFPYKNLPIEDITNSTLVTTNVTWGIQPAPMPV
T1 chain 2: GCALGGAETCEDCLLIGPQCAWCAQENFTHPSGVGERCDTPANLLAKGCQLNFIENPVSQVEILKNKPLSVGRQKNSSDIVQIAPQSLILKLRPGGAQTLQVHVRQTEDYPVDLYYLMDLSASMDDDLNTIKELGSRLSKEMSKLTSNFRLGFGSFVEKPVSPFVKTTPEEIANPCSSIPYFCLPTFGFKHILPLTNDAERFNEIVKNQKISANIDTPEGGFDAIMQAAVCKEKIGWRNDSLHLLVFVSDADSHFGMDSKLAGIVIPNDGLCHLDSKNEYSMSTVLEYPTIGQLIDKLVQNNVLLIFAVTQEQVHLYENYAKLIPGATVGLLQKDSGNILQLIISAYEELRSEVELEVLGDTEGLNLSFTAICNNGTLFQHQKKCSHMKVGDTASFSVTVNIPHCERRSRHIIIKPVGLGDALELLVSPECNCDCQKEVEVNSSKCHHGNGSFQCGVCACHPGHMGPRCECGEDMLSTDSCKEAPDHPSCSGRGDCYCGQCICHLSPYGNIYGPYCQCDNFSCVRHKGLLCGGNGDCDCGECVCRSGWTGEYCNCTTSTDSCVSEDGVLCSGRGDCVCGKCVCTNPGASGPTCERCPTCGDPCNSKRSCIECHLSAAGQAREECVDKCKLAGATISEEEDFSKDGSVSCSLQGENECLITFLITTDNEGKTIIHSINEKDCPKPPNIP

T2: cell-surface expressed αvβ6 on human cells (5637 bladder cancer cells, HaCaT keratinocytes, BxPC-3 pancreatic … (human, UniProt P06756 31-1048; P18564 22-788)
T2 chain 1: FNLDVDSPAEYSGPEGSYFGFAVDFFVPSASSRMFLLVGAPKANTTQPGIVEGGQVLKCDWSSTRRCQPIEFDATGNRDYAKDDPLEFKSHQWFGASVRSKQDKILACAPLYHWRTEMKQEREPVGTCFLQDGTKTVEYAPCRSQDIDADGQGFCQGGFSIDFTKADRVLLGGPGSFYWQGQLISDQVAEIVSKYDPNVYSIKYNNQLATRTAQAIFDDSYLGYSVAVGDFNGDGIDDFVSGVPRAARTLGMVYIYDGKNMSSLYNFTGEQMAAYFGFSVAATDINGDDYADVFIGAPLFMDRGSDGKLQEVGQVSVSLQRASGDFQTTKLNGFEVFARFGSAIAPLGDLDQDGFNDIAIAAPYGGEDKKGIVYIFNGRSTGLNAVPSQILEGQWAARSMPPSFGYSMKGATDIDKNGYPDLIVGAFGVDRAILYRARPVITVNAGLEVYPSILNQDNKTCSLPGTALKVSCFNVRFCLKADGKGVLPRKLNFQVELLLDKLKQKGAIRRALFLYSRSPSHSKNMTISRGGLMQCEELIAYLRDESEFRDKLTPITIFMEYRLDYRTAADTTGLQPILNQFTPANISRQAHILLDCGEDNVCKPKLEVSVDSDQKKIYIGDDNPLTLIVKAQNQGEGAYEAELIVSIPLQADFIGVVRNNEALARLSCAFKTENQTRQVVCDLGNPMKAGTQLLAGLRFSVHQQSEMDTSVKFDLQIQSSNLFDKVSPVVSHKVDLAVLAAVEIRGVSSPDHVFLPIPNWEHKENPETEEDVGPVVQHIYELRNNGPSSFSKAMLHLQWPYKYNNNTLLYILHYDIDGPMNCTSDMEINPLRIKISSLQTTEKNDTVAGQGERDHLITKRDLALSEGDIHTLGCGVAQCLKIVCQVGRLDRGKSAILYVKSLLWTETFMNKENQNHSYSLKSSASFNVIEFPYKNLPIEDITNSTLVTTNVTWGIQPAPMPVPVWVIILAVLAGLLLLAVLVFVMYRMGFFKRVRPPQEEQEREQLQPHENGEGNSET
T2 chain 2: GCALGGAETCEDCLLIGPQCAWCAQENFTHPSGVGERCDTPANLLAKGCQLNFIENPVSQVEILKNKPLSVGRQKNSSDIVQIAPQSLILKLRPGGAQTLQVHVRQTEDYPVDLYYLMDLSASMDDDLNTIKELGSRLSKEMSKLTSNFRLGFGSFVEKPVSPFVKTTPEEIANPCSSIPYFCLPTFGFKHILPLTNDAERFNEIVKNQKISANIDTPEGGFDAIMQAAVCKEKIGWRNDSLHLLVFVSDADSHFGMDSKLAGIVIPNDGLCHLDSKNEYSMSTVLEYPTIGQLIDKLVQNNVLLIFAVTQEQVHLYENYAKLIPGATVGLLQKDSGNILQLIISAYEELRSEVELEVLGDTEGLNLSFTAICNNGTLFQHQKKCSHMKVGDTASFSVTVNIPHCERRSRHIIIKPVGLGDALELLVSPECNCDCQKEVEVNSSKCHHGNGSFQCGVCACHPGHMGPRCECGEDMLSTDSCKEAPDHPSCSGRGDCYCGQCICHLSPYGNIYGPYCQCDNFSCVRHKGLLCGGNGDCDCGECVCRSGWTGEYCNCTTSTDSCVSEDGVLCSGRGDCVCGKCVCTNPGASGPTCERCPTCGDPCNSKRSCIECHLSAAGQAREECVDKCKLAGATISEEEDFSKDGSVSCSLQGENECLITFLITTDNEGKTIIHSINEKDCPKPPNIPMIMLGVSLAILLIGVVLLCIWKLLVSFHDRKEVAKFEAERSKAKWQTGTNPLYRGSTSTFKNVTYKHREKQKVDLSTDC

T3: αvβ8 integrin (purified, coated on microtiter plates) (UniProt P06756 31-992; P26012 43-684)
T3 chain 1: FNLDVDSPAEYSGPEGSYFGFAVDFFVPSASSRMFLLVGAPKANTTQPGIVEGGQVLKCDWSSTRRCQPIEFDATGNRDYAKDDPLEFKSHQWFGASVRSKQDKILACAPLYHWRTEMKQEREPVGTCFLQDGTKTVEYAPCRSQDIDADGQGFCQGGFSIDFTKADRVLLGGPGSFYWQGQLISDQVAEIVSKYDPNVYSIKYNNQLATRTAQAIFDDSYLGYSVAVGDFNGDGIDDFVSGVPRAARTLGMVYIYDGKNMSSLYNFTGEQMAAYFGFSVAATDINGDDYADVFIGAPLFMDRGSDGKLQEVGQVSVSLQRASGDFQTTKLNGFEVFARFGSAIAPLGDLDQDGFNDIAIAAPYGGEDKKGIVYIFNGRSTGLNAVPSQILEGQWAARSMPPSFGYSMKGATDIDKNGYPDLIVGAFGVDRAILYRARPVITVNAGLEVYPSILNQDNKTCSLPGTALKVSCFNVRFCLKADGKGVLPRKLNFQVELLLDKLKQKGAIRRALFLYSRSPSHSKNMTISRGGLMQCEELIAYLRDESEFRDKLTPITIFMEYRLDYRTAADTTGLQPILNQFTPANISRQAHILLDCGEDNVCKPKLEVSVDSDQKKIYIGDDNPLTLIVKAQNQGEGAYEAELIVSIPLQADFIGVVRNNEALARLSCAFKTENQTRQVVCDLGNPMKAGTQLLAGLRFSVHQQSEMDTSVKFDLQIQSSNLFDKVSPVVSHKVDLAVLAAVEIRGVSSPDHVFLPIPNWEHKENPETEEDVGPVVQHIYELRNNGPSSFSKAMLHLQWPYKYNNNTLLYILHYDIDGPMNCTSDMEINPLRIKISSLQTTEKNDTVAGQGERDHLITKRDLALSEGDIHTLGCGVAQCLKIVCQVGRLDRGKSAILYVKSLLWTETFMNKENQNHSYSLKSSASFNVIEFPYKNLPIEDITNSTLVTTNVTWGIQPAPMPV
T3 chain 2: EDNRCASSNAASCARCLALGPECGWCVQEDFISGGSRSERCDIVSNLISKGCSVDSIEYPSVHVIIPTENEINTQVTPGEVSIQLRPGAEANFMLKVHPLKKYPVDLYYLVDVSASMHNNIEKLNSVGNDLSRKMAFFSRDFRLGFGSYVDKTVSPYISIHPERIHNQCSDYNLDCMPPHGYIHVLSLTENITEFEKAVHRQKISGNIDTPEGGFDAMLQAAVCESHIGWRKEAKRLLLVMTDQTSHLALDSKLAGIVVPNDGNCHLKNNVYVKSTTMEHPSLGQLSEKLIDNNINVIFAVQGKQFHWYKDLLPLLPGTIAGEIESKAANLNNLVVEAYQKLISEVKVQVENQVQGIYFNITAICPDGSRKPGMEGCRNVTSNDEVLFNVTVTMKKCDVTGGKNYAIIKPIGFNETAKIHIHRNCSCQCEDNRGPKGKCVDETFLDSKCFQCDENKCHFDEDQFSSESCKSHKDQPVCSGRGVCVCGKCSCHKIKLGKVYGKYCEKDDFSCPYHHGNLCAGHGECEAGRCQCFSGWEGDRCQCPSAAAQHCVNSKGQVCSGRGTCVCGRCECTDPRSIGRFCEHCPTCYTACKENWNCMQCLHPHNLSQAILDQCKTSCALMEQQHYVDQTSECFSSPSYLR


Experiments:
[1] = molecular target: T1, recombinant human αvβ6 extracellular …
[2] = molecular target: T2, cell-surface expressed αvβ6 on human …; experiment: FACS
[3] = molecular target: T2, cell-surface expressed αvβ6 on human …; experiment: FACS
[4] = molecular target: T1, recombinant human αvβ6 extracellular …
[5] = molecular target: T1, recombinant human αvβ6 extracellular …
[6] = molecular target: T3, αvβ8 integrin (purified, coated on …)

Row | Binder | Ki [1] [nM] | IC50 [2] [nM] | other results
1 | C(maleimide‑NOTA)FETLRGEERILSILRHQNLLKELQD [NOTA-2a (peptide 2a coupled to maleimide-NOTA)] | > 1000 | – | –
2 | C(maleimide‑NOTA)FETLRGDLRILSILR[Pra]QNL[Lys(N3)]KELQD-NH2 (triazole 17-21) [NOTA-5a (peptide 5a coupled to maleimide-NOTA)] | 2.31 | – | –
3 | FETLRGDERILSILRHQNLLKELQD [peptide 1 (CgA-derived peptide, residues 39-63), synthetic] | – | 640 | –
4 | CFETLRGDLRILSILR[Pra]QNL[Lys(N3)]KELQD-NH2 (triazole 17-21) [peptide 5a] | 1.71 | – | –
5 | FETLRGDLRILSILRHQNLLKELQD [peptide 4] | – | 16.9 | IC50 [3]: 80 nM
6 | Ac-FETLRGDLRILSILR[Pra]QNL[Lys(N3)]KELQD-NH2 (triazole 16-20) [peptide 5 (triazole-stapled CgA39-63-derived peptide)] | 0.93 | 3.6 | IC50 [3]: 25 nM; Ki [4]: 0.84 nM
7 | CFETLRGEERILSILRHQNLLKELQD [peptide 2a] | – | – | Ki [4]: > 100 nM
8 | C(IRDye 800CW maleimide)FETLRGDLRILSILR[Pra]QNL[Lys(N3)]KELQD-NH2 (triazole 17-21) [5a-IRDye (peptide 5a coupled via Cys to maleimide-IRDye 800CW)] | – | – | EC50 [5]: 2.8 nM; EC50 [6]: 1.9 nM

Source: patent US20220402980A1 (published 2022)
